According to patent US20220332804A1 (CSL INNOVATION, published 2022):
Positions count from the first letter of the chain named.

Assays:
Assay in all cases: SPR, KD relative to WT C2;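 also: biacore SPR at 37 °C, anti-C2 mAbs captured via immobilised goat anti-human IgG, C2 alanine or serine surface mutants as analytes, 1:1 model fitted, double-referenced sensograms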
[1] = target: T1, human C2 Y702A (human, UniProt P06681 21-752)
T1 sequence: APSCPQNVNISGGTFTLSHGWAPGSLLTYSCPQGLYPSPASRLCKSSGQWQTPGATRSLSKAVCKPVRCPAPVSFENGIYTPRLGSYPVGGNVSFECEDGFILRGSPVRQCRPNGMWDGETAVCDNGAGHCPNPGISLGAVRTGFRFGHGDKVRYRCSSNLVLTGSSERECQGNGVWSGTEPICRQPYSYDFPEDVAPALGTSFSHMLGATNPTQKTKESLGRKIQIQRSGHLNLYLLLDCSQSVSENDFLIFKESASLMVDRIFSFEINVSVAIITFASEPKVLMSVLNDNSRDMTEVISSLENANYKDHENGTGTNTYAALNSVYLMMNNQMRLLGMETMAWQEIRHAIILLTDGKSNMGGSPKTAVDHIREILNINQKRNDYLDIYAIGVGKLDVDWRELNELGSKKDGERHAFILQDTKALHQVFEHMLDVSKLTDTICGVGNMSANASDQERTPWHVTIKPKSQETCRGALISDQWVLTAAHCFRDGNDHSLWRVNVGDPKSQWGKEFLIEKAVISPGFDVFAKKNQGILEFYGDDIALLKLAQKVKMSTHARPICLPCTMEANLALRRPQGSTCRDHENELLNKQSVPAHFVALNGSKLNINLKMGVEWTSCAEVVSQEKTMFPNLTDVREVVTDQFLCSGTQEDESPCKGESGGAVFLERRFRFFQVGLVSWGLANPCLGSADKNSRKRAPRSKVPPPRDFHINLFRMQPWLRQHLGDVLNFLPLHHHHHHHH

[2] = target: T2, human C2 P723A (human, UniProt P06681 21-752)
T2 sequence: T1 sequence with A682Y, P703A

[3] = target: T3, human C2 N471A (human, UniProt P06681 21-752)
T3 sequence: T1 sequence with N451A, A682Y

[4] = target: T4, human C2 V465A (human, UniProt P06681 21-752)
T4 sequence: T1 sequence with V445A, A682Y

B1: RF16-226 (antibody, human IgG4 S228P, lambda)
heavy: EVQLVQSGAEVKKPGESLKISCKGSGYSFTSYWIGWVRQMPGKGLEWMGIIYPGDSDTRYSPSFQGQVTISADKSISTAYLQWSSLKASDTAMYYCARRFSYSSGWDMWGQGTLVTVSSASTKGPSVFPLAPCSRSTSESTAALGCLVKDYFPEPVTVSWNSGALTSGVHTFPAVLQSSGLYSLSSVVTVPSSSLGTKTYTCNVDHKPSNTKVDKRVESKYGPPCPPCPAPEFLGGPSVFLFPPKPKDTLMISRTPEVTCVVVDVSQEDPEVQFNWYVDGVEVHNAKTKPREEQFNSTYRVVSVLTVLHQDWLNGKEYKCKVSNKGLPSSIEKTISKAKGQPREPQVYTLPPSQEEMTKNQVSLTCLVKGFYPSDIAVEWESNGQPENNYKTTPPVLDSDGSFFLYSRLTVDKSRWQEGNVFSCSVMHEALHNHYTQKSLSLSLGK
light: SYELTQPPSVSVSPGQTARITCSGDALTSKYVAWYQQKSGLAPLLVIYEDTRRPSGIPAKFSGSSSGSVATLTISGAHGDDEADYYCYSTDASGHQRVFGGGTKLTVLSQPKAAPSVTLFPPSSEELQANKATLVCLISDFYPGAVTVAWKADGSPVKAGVETTKPSKQSNNKYAASSYLSLTPEQWKSHRSYSCQVTHEGSTVEKTVAPTECS
notes: pH-dependent anti-C2 antibody from a phage display library; also called WT
Q: B1 was tested. Which Fold diff [1] did it give?
A: The Fold diff was 11 fold.

Q: What about the Fold diff [2] of the same binder?
A: The Fold diff was 12 fold.

Q: What about the Fold diff [3] of the same binder?
A: The Fold diff was 1 fold.

Q: What about the Fold diff [4] of the same binder?
A: Its Fold diff is 2 fold.
